Assay: soluble on expression in E. coli; label from the status in PepcDB or PDB records

Soluble on expression in E. coli, not soluble:
MKGIILAGGTGSRLYPITKVTNKHLLPVGRYPMIYHAVYKLKQCDITDIMIITGKEHMGDVVSFLGSGQEFGVSFTYRVQDKAGGIAQALGLCEDFVGNDRMVVILGDNIFSDDIRPYVEEFTNQKEGAKVLLQSVDDPERFGVANIQNRKIIEIEEKPKEPKSSYAVTGIYLYDSKVFSYIKELKPSARGELEITDINNWYLKRGVLTYNEMSGWWTDAGTHVSLQRANALARDINFGKQFNGE
MGSDKIHHHHHHMRPVYIATAYLGPIQQYCKMLQYPEVRIETAENYVKQTYRNRCVIAAANGPLSLSIPIVKPDTLKCQTKDIRISDHGNWRHLHWNALVSAYNMSPFFEYYADDLAPFYEKKYEFLLDFNEELRRLVCDLLDMQPAVVYTEHYEPEVANDFRETIRPKHEGEDPAFRPEPYYQVFREKFGFLPNLSIADLLFNMGPEGLVTLRASITGSL
MIVDTSVWIAYLSTSESLASRWLADRIAADSTVIVPEVVMMELLIGKTDEDTAALRRRLLQRFAIEPLAPVRDAEDAAAIHRRCRRGGDTVRSLIDCQVAAMALRIGVAVAHRDRDYEAIRTHCGLRTEPLF
MGSDKIHHHHHHMGLLYRETYEVPFYESDTNHYMKLPQLLALALQISAKQSLKLGIGDDIVFKRYGLVWVVTDYIIDIERLPKHAEKIVIETEAKAHNKLLCYRYFYIYGEDGQKIITISSAFVLMDFKTRKIHPVLDDITSIYQSQRIKKVIRGPKYHPIGDSKVKQYHVRYFDLDMNGHVNNSKYLEWMYDVLDLDFLSSHIPKKIDLKYIKEIQYGTDIKSHWYQDGLVTRHDIIGGDAIHAQARIEWQEKKED
MHMEDFIQFFSGSNLSIDKANFDQFGLKAKIKHYQKGQLLITQGQPAPKLFFLIKGMVRYMSVSATGKEFTQSFAFAPGISGSTRAMTRNANALFSIEALDDVICLEFEWHVFFDQMQSQPGFLAAYNRLLENMFIKKEEREFAFVQQSAEQRYLTFLDMNPQLRDKISLKMIASHIGITPIALSRIRNKLK
MGSDKIHHHHHHMKHYEAYGIATRNTKIQGQFYRLADEEVFIHHFEPLQKNNDIILLLHGYMDHSLTSARLINRLISEGFEVVALDWPGHGLSKGETYHIRSFRQYNTIFLQLVQDMIERWGSDRIHLIAHSTGAGVVLDGLTNNLKKMPTGGIVLTSPLIKLPSHRIGKLFLPFVRKWRKQVRRIYRTNSSDPLFMKAIEEDPLQHEVIPLTWFDAYLQWHEDMRRRAKCSAENVTILQGTRDTTVHWKANMKWLAETLPSAERILIDGGGHHLWNEGDLIRELVFRFILKRLKKT
MSPFDYLHFALLLVAPLAVLIGCGGKKKPPPPKSASKMGPPPPAPAPPTAPEATPAAPAPDAAAAAPAEGEKKDGDKKSEKKDGDKKEEEKKDEEKKDGDKKEDDKKDEKKDEDKKDEKKDADEKKDEEKKDDKKDEKKDEKKDEKKEKSKKSKKSSKSKKSKKSKREKKDEDKKEDDKKEDDKKDDKKEDDKKDDEKKDDDKKDDEKKE
MSNSKPVNYLTLKCLLKNMDSGMRLQLFVMFPSIQYLEKLFPLHVKYLTIKSDHITVNRTTFQLKICNKYNNFHGGYKFDFDQYGRLDRGEIEQDPDESIIDVRDGFLSKKGIPECEMETARLVHNLTLQKSQRYSTRIWESHGTILKKLSYYVPENNFIRLKIGKRVEVLEYQRKIHEAMKYLLGRLFGGRSLEANQFSIGCDTVLRVPSTLKFRIENLYTPSFKIANTLDVVNQIVDNSSLPLSSLKYSFENHIYHHPHSLVRTVKMLKLEVEMVPDYISGIVSNLQMVDEKRAHIVFLGDCTSSNFLKILAHWILEFHRDIGTYHTYQLSEAVVDEVMIFVRTNYGVMIEAGLPQTTDQITLNINDTSSLVISKFQQKEKWIFGLKMEH
TGSIGSAARKILLAKTDVQLTLYSRRADRLKLIVDRETAVAGSVTDDDQLDQAIKGQDFVFVALNGDMDSFAAHIISAMERNGIQRLIFITTMGIYQEIPAWLGDSPEPYHNPILKSFRQAADRIEQSDLNYTIIRPGWYNN
MGSDKIHHHHHHMHQTILHAFSQHAASCYPNECCGLLIRQGNKAQYVKCENKATNKADEFVIDPQQYADIEELGAIIGICHSHPDASSKPSDRDRAMCEASGLPWHILSWPDGDLRTIVPTGERKSLLNRPFVHGVWDCYSCVRDWYSEVQQIHLPDFARQDGWWEGEQELYLDNFAKAGFVALPNINLADLQIGDVFLMQIQSQRVNHAAVYVGEGKILHHLYGRLSRYDIYGGYWQRNTRLIVRHCQ
MSLSRRIGIIDTTLRDAQQCLWATRMTAGMMDPIAQALDEAGFDMIDFMAPVQFDVCVRYLREDPFEKARHFRKRFRNTPMRSYCRSKSLVGFSMVPDDMVELWIDCLAANGFSAVGTLDSLLDVDNMKVSVGRAKKIGIKSIGALVFCESPLHTDALYAGTAAELVRCGVDGIMLKDSGALLTIERIRTLIPALRAAVGDIPIEVHSHSNTGLVQRVYLDAADLGIDQLHTSIAPLAGGVAQPSIQNMTRNLAQRGYRTDVDMARVEEISAYLHRLAARYDFPLGKEGHHHHHH
TRGAKDTVMIVNAQGGMEPREVTVAQQQGTNWIVTSGLKDGDKVVVEGISIAGITGAKKVTPKEWASSENQAAAPQSGVQTASEAKPASEAK

Soluble on expression in E. coli, soluble:
RMASVWQRLGFYASLLKRQLNGGPDVIKWERRVIPGCTRSIYSATGKWTKEYTLQTRKDVEKWWHQRIKEQASKISEADKSKPKFYVLSMFPYPSGKLHMGHVRVYTISDTIARFQKMRGMQVINPMGWDAFGLPAENAAVERNLHPQSWTQSNIKHMRKQLDRLGLCFSWDREITTCLPDYYKWTQYLFIKLYEAGLAYQKEALVNWDPVDQTVLANEQVDEHGCSWRSGAKVEQKYLRQWFIKTTAYAKAMQDALADLPEWYGIKGMQAHWIGDCVGCHLDFTLKVHGQATGEKLTAYTATPEAIYGTSHVAISPSHRLLHGHSSLKEALRMALVPGKDCLTPVMAVNMLTQQEVPVVILAKADLEGSLDSKIGIPSTSSEDTILAQTLGLAYSEVIETLPDGTERLSSSAEFTGMTRQDAFLALTQKARGKRVGGDVTSDKLKDWLISRQRYWGTPIPIVHCPVCGPTPVPLEDLPVTLPNIASFTGKGGPPLAMASEWVNCSCPRCKGAAKRETDTMDTFVDSAWYYFRYTDPHNPHSPFNTAVADYWMPVDLYIGGKEHAVMHLFYARFFSHFCHDQKMVKHREPFHKLLAQGLIKGQTFRLPSGQYLQREEVDLTGSVPVHAKTKEKLEVTWEKMSKSKHNGVDPEEVVEQYGIDTIRLYILFAAPPEKDILWDVKTDALPGVLRWQQRLWTLTTRFIEARASGKSPQPQLLSNKEKAEARKLWEYKNSVISQVTTHFTEDFSLNSAISQLMGLSNALSQASQSVILHSPEFEDALCALMVMAAPLAPHVTSEIWAGLALVPRKLCAHYTWDASVLLQAWPAVDPEFLQQPEVVQMAVLINNKACGKIPVPQQVARDQDKVHEFVLQSELGVRLLQGRSIKKSFLSPRTALINFLVQD
MGGKSNGEKKYIVGFKQGFKSCAKKEDVISEKGGKLQKCFKYVDAASATLNEKAVEELKKDPSVAYVEEDKLYRALSATS
MSLKHGRTRLIGLIIADITNPYSVNVMSGIEAACREKGFTLLVCNTNNELDQELHYLDLLRSYQVEGIVVNAVGMREDGLNRLQQSALPMVLIDRKIPDFACDVVGLDNAQAATTATEHLVEKGFEAILFLSEPLGSVNTRRERLSAFRATLARHHGVVAENAEVQLNDGAMLDNVLRQFHARHRGMRKAVISANGALTLQVARALKRVGLIWGSDIGLLGFDELEWAELAGVGITTLKQPTWQIGYAAVEQVIRRIAGTNDPIRERVFSGELIVRGSTSREGHHHHHH
MNTVSPAKKKVIIIGAGIAGLKAASTLHQNGIQDCLVLEARDRVGGRLQTVTGYQGRKYDIGASWHHDTLTNPLFLEEAQLSLNDGRTRFVFDDDNFIYIDEERGRVDHDKELLLEIVDNEMSKFAELEFHQHLGVSDCSFFQLVMKYLLQRRQFLTNDQIRYLPQLCRYLELWHGLDWKLLSAKDTYFGHQGRNAFALNYDSVVQRIAQSFPQNWLKLSCEVKSITREPSKNVTVNCEDGTVYNADYVIITVPQSVLNLSVQPEKNLRGRIEFQPPLKPVIQDAFDKIHFGALGKVIFEFEECCWSNESSKIVTLANSTNEFVEIVRNAENLDELDSMLEREDSQKHTSVTCWSQPLFFVNLSKSTGVASFMMLMQAPLTNHIESIREDKERLFSFFQPVLNKIMKCLDSEDVIDGMRPIENIANANKPVLRNIIVSNWTRDPYSRGAYSACFPGDDPVDMVVAMSNGQDSRIRFAGEHTIMDGAGCAYGAWESGRREATRISDLLKLEHHHHHH
MKSRAAVAFAPGKPLEIVEIDVAPPKKGEVLIKVTHTGVCHTDAFTLSGDDPEGVFPVVLGHEGAGVVVEVGEGVTSVKPGDHVIPLYTAECGECEFCRSGKTNLCVAVRETQGKGLMPDGTTRFSYNGQPLYHYMGCSTFSEYTVVAEVSLAKINPEANHEHVCLLGCGVTTGIGAVHNTAKVQPGDSVAVFGLGAIGLAVVQGARQAKAGRIIAIDTNPKKFDLARRFGATDCINPNDYDKPIKDVLLDINKWGIDHTFECIGNVNVMRAALESAHRGWGQSVIIGVAVAGQEISTRPFQLVTGRVWKGSAFGGVKGRSQLPGMVEDAMKGDIDLEPFVTHTMSLDEINDAFDLMHEGKSIRTVIRY
MSLATNKKEIIRLLEEIATYMELKGENSFKISAFRKAAQAIELDSRSLSEIDDFTKISGIGKTTGEIIQRYLDSGECPELEELKKEVPAGLVPLLDVPGLGGKKLSRLYHELGVVDKDTLLQEAENGHIEALKGFGKKSAEKMAEAVREMGERPDRYPLNDVLPIIQKVEAYLAEIAPIETFAQAGSLRRLRETVKDLDYVIATEKPEDVQKALLAFPLITDVIGAGETKVSAVLEDNITISVDFRLVEKKAFATTLHHFTGSKDHNIKMRQLAKQSNEKISEYGVEQEDGTVRHFESEKTFFEHFKIPFLPPEVRRDGTEIERVTKDTKFLELSDIRGDLHMHTTWSDGAYAIPEMIEACIAKGYEYMVITDHGKFLRVANGLDEKRLLEQQAEIKKIAAKYPEIDVYSGVEMDILADGSLDFDDETLKQLDFVIASIHSSFQQSEEEIMKRLKTACENPYVRLIAHPTGRIVVKRKPYHVNMKELIQLAKSTGTALELNANPQRLDLNREHLEMAHAAGVPIAINTDAHDTKHLDFMSIGVRAATKAWLGKSAILNTKTAAEFKQFLQNKEGHHHHHH
MAAWKSWTALRLCATVVVLDMVVCKGFVEDLDESFKENRNDDIWLVDFYAPWCGHCKKLESIWNEVGLEMKSIGSPVKVGKMDATSYSSIASEFGVRGYPTIKLLKGDLAYNYRGPRTKDDIIEFAHRVSGALIRPLPSQQMFEHMQKRHRVFFVYVGGESPLKEKYIDAASELIVYTYFFSASEEVVPEVIFKI
AFLNKHFAKKNHNISVDELSHALELTDKAELTEENNILEGIIRFGGETAKEVMTSRLDVVDLDIRTPFKDVIQCIIDNAYSRIPIYSGTRDNIKGVLYIKDLLPHLNKGDNFRWQSLIRPAYFVPETKMIDDLLRDFQANKIHIAIVVDEFGGTSGIVTMEDIIEEIVGEIHDEYDD
MKFCSQCGGEVILRIPEGDTLPRYICPKCHTIHYQNPKVIVGCIPEWENKVLLCKRAIAPYRGKWTLPAGFMENNETLVQGAARETLEEANARVEIRELYAVYSLPHISQVYMLFRAKLLDLDFFPGIESLEVRLFGEQEIPWNDIAFRVIHDPLKRYMEERHHGQPAFHLGIINKPQAGSNSNE

Source: the DeepSol protein solubility set
